Data on one substance can be found in patent publication US7687457B2, “Cyclic molecular framework and derivatives thereof” (The University of Queensland, priority 1999, dated 2010).

The target in this assay is N-type voltage-sensitive calcium channels (receptors in rat brain membrane) (rat) (UniProt Q02294).

pEC50: −log10 of the molar value.

Chain of UniProt Q02294 (Q02294 whole entry): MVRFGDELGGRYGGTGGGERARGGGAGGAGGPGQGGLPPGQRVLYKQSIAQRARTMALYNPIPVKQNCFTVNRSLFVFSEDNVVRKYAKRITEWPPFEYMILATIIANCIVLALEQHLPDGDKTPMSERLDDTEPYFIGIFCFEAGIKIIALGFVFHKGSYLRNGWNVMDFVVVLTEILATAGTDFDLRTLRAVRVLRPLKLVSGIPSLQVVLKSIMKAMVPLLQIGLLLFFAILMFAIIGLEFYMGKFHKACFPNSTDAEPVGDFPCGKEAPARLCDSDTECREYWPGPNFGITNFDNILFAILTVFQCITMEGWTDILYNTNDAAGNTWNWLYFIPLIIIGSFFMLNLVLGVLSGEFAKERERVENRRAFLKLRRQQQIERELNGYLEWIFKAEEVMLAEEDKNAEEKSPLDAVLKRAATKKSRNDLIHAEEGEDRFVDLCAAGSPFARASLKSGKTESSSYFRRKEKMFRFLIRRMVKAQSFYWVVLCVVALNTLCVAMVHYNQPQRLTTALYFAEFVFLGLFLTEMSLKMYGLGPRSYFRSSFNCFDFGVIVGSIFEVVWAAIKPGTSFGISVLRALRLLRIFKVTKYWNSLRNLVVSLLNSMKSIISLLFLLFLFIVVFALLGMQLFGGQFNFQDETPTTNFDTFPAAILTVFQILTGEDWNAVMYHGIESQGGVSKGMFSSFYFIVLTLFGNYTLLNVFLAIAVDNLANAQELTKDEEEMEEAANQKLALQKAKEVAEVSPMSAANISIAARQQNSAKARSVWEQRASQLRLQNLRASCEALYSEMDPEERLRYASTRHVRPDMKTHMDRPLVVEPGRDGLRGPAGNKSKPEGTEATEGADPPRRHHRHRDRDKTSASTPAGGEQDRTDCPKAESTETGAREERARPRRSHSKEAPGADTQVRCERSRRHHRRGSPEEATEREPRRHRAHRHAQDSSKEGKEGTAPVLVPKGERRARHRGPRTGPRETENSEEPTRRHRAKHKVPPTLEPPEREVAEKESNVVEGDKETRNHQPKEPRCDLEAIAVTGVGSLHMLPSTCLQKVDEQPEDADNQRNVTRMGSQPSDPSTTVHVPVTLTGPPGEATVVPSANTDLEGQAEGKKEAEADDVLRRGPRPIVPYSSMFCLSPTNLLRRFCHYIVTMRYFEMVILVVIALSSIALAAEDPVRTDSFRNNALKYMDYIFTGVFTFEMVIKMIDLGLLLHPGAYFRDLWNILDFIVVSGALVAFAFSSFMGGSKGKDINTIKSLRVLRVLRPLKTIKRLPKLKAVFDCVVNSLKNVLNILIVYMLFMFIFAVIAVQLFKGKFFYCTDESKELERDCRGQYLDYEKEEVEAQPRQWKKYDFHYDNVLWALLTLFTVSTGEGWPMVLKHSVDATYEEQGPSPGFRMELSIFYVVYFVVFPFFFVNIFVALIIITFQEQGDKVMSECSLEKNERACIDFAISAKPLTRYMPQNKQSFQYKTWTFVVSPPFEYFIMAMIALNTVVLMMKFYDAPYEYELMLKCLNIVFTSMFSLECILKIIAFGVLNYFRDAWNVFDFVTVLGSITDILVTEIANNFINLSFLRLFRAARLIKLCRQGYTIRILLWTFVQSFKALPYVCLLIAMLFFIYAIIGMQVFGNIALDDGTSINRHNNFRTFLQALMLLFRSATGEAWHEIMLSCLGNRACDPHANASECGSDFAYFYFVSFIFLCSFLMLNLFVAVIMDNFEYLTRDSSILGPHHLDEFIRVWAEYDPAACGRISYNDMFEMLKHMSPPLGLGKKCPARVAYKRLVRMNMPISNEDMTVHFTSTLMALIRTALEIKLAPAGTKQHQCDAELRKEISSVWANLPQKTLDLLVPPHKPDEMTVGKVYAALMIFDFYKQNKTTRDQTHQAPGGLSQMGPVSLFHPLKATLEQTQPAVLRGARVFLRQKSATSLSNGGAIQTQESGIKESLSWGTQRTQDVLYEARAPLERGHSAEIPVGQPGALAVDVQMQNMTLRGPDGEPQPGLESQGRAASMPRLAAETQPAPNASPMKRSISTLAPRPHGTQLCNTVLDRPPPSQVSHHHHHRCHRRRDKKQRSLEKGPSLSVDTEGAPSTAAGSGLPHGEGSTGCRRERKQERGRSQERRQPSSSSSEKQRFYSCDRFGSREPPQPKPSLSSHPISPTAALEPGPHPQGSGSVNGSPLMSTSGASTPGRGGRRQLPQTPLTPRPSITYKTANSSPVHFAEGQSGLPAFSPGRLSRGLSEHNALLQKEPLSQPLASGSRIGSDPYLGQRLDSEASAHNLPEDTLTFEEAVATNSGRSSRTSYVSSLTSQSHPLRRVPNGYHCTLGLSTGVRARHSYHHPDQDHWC

Regarding “ω-conotoxin MVIIA (from UniProt P05484 46-70) (peptide)”, the negative-log EC50 (pEC50) – broadly, the EC50 on a negative log10 scale, so that one unit is a factor of ten – is 10.36.
